Data from PMC8886817.

Tests used:
[1] = target: Rabbit skeletal muscle actin (RMA), as actin filaments (F-actin) (rabbit) (UniProt P68135); assay: open-flow TIRF microscopy of single filament growth
[2] = target: GST-549-SNAP-N-IQGAP1 (GST-SNAP-N-IQGAP1-6His, 1–522) (UniProt P46940); assay: single-molecule step photobleaching
[3] = target: Rabbit skeletal muscle actin (RMA), as actin filaments (F-actin) (rabbit) (UniProt P68135); assay: single-molecule microfluidics-assisted TIRF

average pause time [1] [s] | stoichiometry N [2] | average dwell time on filament sides [3] [min] | koff [3] [s⁻¹] | Substance
14.7 |  |  |  | GST-C-IQGAP1 (675–1657) (from UniProt P46940 675-1657) (domain or fragment)
 | 2 | 6.8 | 0.0025 | GST-549-SNAP-N-IQGAP1 (GST-SNAP-N-IQGAP1-6His, 1–522) (from UniProt P46940 1-522) (domain or fragment)
